# Measured values taken from patent US12168686 (CLOVER BIOPHARMACEUTICALS, dated 2024).
# B1: TRAIL-Trimer (mature human TRAIL fused to the C-propeptide of human alpha1(I) collagen, Trimer-Tag, with a mutated BMP-1 site) (ligand)
# chain: VRERGPQRVAAHITGTRGRSNTLSSPNSKNEKALGRKINSWESSRSGHSFLSNLHLRNGELVIHEKGFYYIYSQTYFRFQEEIKENTKNDKQMVQYIYKYTSYPDPILLMKSARNSCWSKDAEYGLYSIYQGGIFELKENDRIFVSVTNEHLIDMDHEASFFGAFLVGGSNGLPGPIGPPGPRGRTGDAGPVGPPGPPGPPGPPGPPSAGFDFSFLPQPPQEKAHDGGRYYRANDANVVRDRDLEVDTTLKSLSQQIENIRSPEGSRKNPARTCRDLKMCHSDWKSGEYWIDPNQGCNLDAIKVFCNMETGETCVYPTQPSVAQKNWYISKNPKDKRHVWFGESMTDGFQFEYGGQGSDPADVAIQLTFLRLMSTEASQNITYHCKNSVAYMDQQTGNLKKALLLKGSNEIEIRAEGNSRFTYSVTVDGCTSHTGAWGKTVIEYKTTKSSRLPIIDVAPLDVGAPDQEFGFDVGPVCFL
# notes: also called SCB-313; disulfide bond-linked trimeric TRAIL fusion protein
# Tests used:
# [1] = biological target: T1, soluble DR5-Fc fusion protein (UniProt O14763 56-182, limits assumed, biotin-labeled (sites not given)); experiment: BLI (ForteBio Octet), biotin-labeled DR5-Fc on streptavidin sensors
# T1 construct: It was biotinylated and captured on streptavidin biosensors; also called DR5 (TRAIL-R2); biotinylated DR5-Fc; not shown: Fc part
# Description: (§1) Figure 7: FIG. 7 is the kinetic studies of TRAIL-Trimer, TRAIL-Fc and native TRAIL binding to the soluble DR5-Fc fusion protein assessed by biolayer interferometry measurements. The Super Streptavidin biosensor tips of the ForteBio Octet RED 96 were coated with biotinylated DR5-Fc. The biosensor tips were dipped in increasing concentrations gradient of TRAIL-Trimer, TRAIL-Fc and native TRAIL to measure their binding to DR5-Fc and subsequently moved to wells containing buffer (PBS) to measure dissociation rates. The dissociation constant Kd was shown for each graph. Figure 7: Figure 7:
# (§2) Comparison of TRAIL-Trimer, TRAIL-Fc and Native TRAIL in Receptor Binding Avidity In Vitro DR5 (TRAIL-R2) is one of TRAIL's functional receptors which initiates extrinsic apoptosis pathway signaling upon activation; thus, we examined the binding kinetic profile of TRAIL-Trimer, TRAIL-Fc and native TRAIL to a soluble DR5-Fc fusion protein. With Fortebio biolayer interferometry measurement, the biotin-labeled DR5-Fc was first captured on Streptavidin (SA) sensors, and real-time binding curves were measured and plotted by applying the sensor in gradient concentrations (15.4 nM-123.5 nM) of the three analytes (FIG. 7).
# [2] = biological target: T1, soluble DR5-Fc fusion protein; experiment: biolayer interferometry (ForteBio Octet RED 96), biotinylated DR5-Fc captured on streptavidin biosensor tips, TRAIL-Trimer in solution at graded concentrations
# Description: as §1, §2
# T1 sequence (O14763 56-182 limits assumed): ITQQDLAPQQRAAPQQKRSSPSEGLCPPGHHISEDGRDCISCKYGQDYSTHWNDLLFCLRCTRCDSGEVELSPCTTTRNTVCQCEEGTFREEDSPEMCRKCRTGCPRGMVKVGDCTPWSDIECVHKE
binder,measurement,setting,value
B1,koff,[1],< 1e-07 s⁻¹
same,kon,[1],81000 M⁻¹ s⁻¹
same,Kd,[2],< 1 pM
